Results as given in PMC12489471, “A multi-dentate, cooperative interaction between endo- and exo-ribonucleases within the bacterial RNA degradosome” (Nucleic Acids Research, 2025).
“Also recorded” adds a separate entry of the source.

T1: PNPase (Escherichia coli, UniProt P05055)
T1 construct: made in house; host or cells: E. coli Evo21(DE3)
T1 sequence (P05055 whole entry, looked up): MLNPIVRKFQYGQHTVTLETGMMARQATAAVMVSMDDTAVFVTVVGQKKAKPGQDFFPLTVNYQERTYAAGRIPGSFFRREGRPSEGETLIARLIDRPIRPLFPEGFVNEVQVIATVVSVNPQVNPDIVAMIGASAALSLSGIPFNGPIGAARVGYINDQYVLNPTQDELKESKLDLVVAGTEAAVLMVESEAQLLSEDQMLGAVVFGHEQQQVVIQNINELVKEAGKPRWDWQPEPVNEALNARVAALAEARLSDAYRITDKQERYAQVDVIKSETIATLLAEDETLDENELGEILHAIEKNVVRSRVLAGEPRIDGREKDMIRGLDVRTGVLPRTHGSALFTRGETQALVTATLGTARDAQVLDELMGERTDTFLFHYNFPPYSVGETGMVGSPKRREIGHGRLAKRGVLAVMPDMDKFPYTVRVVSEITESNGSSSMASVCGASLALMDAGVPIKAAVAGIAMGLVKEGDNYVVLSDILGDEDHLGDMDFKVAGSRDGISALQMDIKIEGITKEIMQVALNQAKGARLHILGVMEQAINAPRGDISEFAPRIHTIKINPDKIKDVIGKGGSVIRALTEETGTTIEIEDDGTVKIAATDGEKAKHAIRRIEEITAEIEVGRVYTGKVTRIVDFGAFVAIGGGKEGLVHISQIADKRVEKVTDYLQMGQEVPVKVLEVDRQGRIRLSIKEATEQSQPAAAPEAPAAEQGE

B1: E. coli PNPase core, lacking S1 and KH domains: truncated PNPase lacking the KH and S1 domains (protein)
chain: MLNPIVRKFQYGQHTVTLETGMMARQATAAVMVSMDDTAVFVTVVGQKKAKPGQDFFPLTVNYQERTYAAGRIPGSFFRREGRPSEGETLIARLIDRPIRPLFPEGFVNEVQVIATVVSVNPQVNPDIVAMIGASAALSLSGIPFNGPIGAARVGYINDQYVLNPTQDELKESKLDLVVAGTEAAVLMVESEAQLLSEDQMLGAVVFGHEQQQVVIQNINELVKEAGKPRWDWQPEPVNEALNARVAALAEARLSDAYRITDKQERYAQVDVIKSETIATLLAEDETLDENELGEILHAIEKNVVRSRVLAGEPRIDGREKDMIRGLDVRTGVLPRTHGSALFTRGETQALVTATLGTARDAQVLDELMGERTDTFLFHYNFPPYSVGETGMVGSPKRREIGHGRLAKRGVLAVMPDMDKFPYTVRVVSEITESNGSSSMASVCGASLALMDAGVPIKAAVAGIAMGLVKEGDNYVVLSDILGDEDHLGDMDFKVAGSRDGISALQMDIKIEGITKEIMQVALNQAKGARLHILGVMEQAINAPRGDISEFA
modifications: left off: Mycobacterium xenopi GyrA intein, C-terminal, cleaved | His8, C-terminal, cleaved
B2: RNase E 583-1061, avi-tagged: avi-tagged RNase E 583-1061 (protein)
chain: SGGEETKPTEQPAPKAEAKPERQQDRRKPRQNNRRDRNERRDTRSERTEGSDNREENRRNRRQAQQQTAETRESRQQAEVTEKARTADEQQAPRRERSRRRNDDKRQAQQEAKALNVEEQSVQETEQEERVRPVQPRRKQRQLNQKVRYEQSVAEEAVVAPVVEETVAAEPIVQEAPAPRTELVKVPLPVVAQTAPEQQEENNADNRDNGGMPRRSRRSPRHLRVSGQRRRRYRDERYPTQSPMPLTVACASPELASGKVWIRYPIVRPQDVQVEEQREQEEVHVQPMVTEVPVAAAIEPVVSAPVVEEVAGVVEAPVQVAEPQPEVVETTHPEVIAAAVTEQPQVITESDVAVAQEVAEQAEPVVEPQEETADIEEVVETAEVVVAEPEVVAQPAAPVVAEVAAEVETVAAVEPEVTVEHNHATAPMTRAPAPEYVPEAPRHSDWQRPTFAFEGKGAAGGHTATHHASAAPARPQPVE
modifications: left off: Avi tag, end not stated, kept
B3: RNase E 960 – 1061 R1012A: RNase E peptide with point mutation of Arg1012 to alanine (peptide)
chain: VVETAEVVVAEPEVVAQPAAPVVAEVAAEVETVAAVEPEVTVEHNHATAPMTAAPAPEYVPEAPRHSDWQRPTFAFEGKGAAGGHTATHHASAAPARPQPVE
modifications: left off: His6, N-terminal, cleaved | MBP, N-terminal, cleaved | intein, C-terminal, cleaved | choline-binding domain, C-terminal, cleaved
notes: RNase E peptide with point mutation of Arg1012 to alanine
B4: RNase E 960 – 1061 R1056A: RNase E peptide with point mutation of Arg1056 to alanine (peptide)
chain: VVETAEVVVAEPEVVAQPAAPVVAEVAAEVETVAAVEPEVTVEHNHATAPMTRAPAPEYVPEAPRHSDWQRPTFAFEGKGAAGGHTATHHASAAPAAPQPVE
modifications: left off: His6, N-terminal, cleaved | MBP, N-terminal, cleaved | intein, C-terminal, cleaved | choline-binding domain, C-terminal, cleaved
notes: RNase E peptide with point mutation of Arg1056 to alanine

Tests used:
[1] = SEC-MALLS molar mass of PNPase and PNPase/RNase E complexes; format: physicochemical
Description: Estimation of molar masses of PNPase and the various PNPase/RNase E complexes was carried out by size-exclusion chromatography with multi-angle laser light scattering (SEC-MALLS). Proteins (100 μl at ∼1 mg/ml concentration) were loaded onto a Superdex 200 10/300 Increase GL SEC column (GE Healthcare) at 0.5 ml/min using an AKTA Purifier FPLC system ([…]). Chromatograms were acquired using UNICORN software (GE Healthcare) at 280 nm. The eluent from the S200 column was analysed with an online DAWN HELEOS II MALLS instrument with eight detectors (Wyatt Technology), followed by an Optilab T-rEX differential refractometer (Wyatt Technology) at 25°C. Data collection and analysis were performed using ASTRA 6 software (Wyatt Technology). Eluted peaks from SEC column were evaluated by Zimm Plot, using a dn/dc value of 0.1850 ml/g. Bovine serum albumin was used as a standard to confirm the system performance (Supplementary Table S1).

PNPase = molecular target: T1, PNPase; format: binding, E. coli; settings: SPR; for Kd (dissociation rate constant, point mutants and wildtype): 25°C, immobilized PNPase C-His, HEPES pH 7.2, 0, 12.5, 25 and 50 nM (point mutants), contact 120 s, dissociation 120 s, duplicates
Description: Briefly, at the N-terminal of the construct, there is an Hisx6 affinity tag that will be used for affinity purification. Following the Hisx6 tag there is an maltose-binding protein (MBP) tag with a TEV cleavage site to maintain solubility of the peptides. Following the MBP tag the gene encoding the peptide is inserted, and is then followed by intein, a self-cleavable tag, followed by a choline-binding domain, which can be used for an extra step of affinity purification. […] After expression, cells were harvested, resuspended in Lysis Buffer 2 (20 mM Tris–HCl, pH 8.0, 80 mM KCl, 300 mM NaCl, 20 mM Imidazole, 0.5 mM TCEP), and lysed with a cell disruptor (Emulsiflex, Avestin). […] After subsequent rounds of washing with Ni Equilibration Buffer supplemented with, respectively, 0.1% Triton-X, 1 M NaCl, and a final wash in Ni Equilibration Buffer, samples were eluted with Ni Elution Buffer (20 mM Tris–HCl, pH 8.0, 300 mM NaCl, 300 mM imidazole, 0.5 mM TCEP). Enriched fractions were then supplemented with 100 mM β-mercaptoethanol to catalyse intein self-cleavage overnight at room temperature. Treated samples were filtered and loaded on an amylose gravity flow column, equilibrated with Amy Equilibration Buffer (20 mM Tris–HCl, pH 8.0, 20 mM NaCl, 20 mM imidazole, 2 mM β-mercaptoethanol) and after washing, His-tagged TEV protease was applied to the resin and incubated at 4°C for 2 h.
PNPase carrying a C-terminal Hisx6 tag was expressed from pExp-cis-Ec_PNP-CHis vector in E. coli Evo21(DE3) cells, induced with 0.4 mM IPTG, at 18°C overnight. After expression, cells were harvested and resuspended in Lysis Buffer 2 (20 mM Tris–HCl, pH 8.0, 80 mM KCl, 300 mM NaCl, 20 mM imidazole, 0.5 mM TCEP), and lysed with a cell disruptor (Emulsiflex, Avestin). […] After subsequent rounds of washing with equilibration buffer supplemented with 0.1% Triton-X, or 1 M NaCl, the sample was eluted with Ni PNPCHis Elution Buffer (20 mM NaH2PO4, pH 8.0, 300 mM NaCl, 300 mM KCl, 5 mM MgCl2, 300 mM imidazole, pH 7.5, 10 mM β-mercaptoethanol). […] Fractions containing PNPase were run through a HiPrep™ 26/10 Desalting Column (GE Healthcare) and buffer exchanged to Q PNPCHis A (20 mM NaH2PO4, pH 8.0, 30 mM NaCl, 10% glycerol, 0.5 mM TCEP).
Interaction measurements were made using a Biacore T200 instrument (GE) at 25°C. PNPase with a 6xHisTag at the CTD was immobilized on a Series S Sensor Chip NTA (Cytiva) to provide a signal of 5 response units (RU). […] For the SPR analysis of the point mutants, binding to PNPase was measured at four different concentrations (0, 12.5, 25, and 50 nM). All concentrations were run in duplicates. The contact time was 60 s, while the dissociation time was 120 s, at a […] flow rate. […] The chip surface was regenerated with 350 mM EDTA in water, following manufacturer's instructions. Data were processed using the manufacturer’s BIAevaluation software.

[2] = Superdex 200, 25°C, buffer A (with 0.01% w/v b-DDM)
[3] = Superdex 200, 25°C, buffer A: 50 mM Tris pH 7.5, 100 mM NaCl, 100 mM KCl, 0.01% w/v b-DDM, 1 mM TCEP
[4] = Superdex 200, 25°C, buffer B: A w/o bDDM
[5] = buffer A (with 0.01% w/v b-DDM)
[6] = buffer A, expected: PNPase trimer, or trimer:RNase E 1:1 ratio
[7] = buffer B, expected: trimer:RNase E 1:1 ratio for complexes
[8] = buffer B: A w/o bDDM, second line in buffer B
[9] = mutant vs wildtype RNase E 960–1061

Molecule | Mw weight-averaged solute molar mass [1, 2] | Mn number-averaged solute molar mass [1, 3] | Mn number-averaged solute molar mass [1, 4] | Mw weight-averaged solute molar mass [1, 4] | Polydispersity (Mn/Mw) [1, 5] | Difference Mn from expected mass [1, 6] | Difference Mn from expected mass [1, 7] | Polydispersity (Mn/Mw) ([1]; buffer B: A w/o bDDM) | Kd (dissociation rate constant, point mutants and wildtype) (PNPase) | association rate compared to the wildtype, in words (PNPase; [9]) | dissociation rate (off-rate) compared to the wildtype, in words (PNPase; [9]) | other results
Bovine serum albumin: standard to confirm the system performance [reference compound] | 63,270 Da | 63,250 Da | 63,300 Da | 63,350 Da | 1.000 | 4.8% | 4.7% | 1.001 | – | – | – | Difference Mn from expected mass ([1]; buffer B, second line in buffer B): 3.8%; Mn number-averaged solute molar mass [1, 8]: 63,900 Da; Mw weight-averaged solute molar mass [1, 8]: 64,200 Da; Polydispersity (Mn/Mw) [1, 8]: 1.005
E. coli PNPase: polynucleotide phosphorylase, trimer | 204,900 Da | 204,600 Da | – | – | 1.001 | 11.5% | – | – | – | – | – | –
B1 | 163,600 Da | 163,300 Da | – | – | 1.002 | 8.7% | – | – | – | – | – | –
B2 | – | – | 52,930 Da | 53,310 Da | – | – | 4.7% | 1.007 | – | – | – | –
B3 | – | – | – | – | – | – | – | – | 0.052 s⁻¹ | does not significantly affect the KD of the interaction and the association rate | faster off-rate; also recorded: faster dissociation rate | effect on KD / binding compared to the wildtype, in words (PNPase; [9]): does not significantly affect the KD of the interaction
B4 | – | – | – | – | – | – | – | – | 0.045 s⁻¹ | ten-fold slower | faster off-rate | KD change compared to the wildtype (PNPase; [9]): roughly 13 fold
